Results published in patent US20200024330A1.

Key:
Experiment in all cases: cell-based or functional assay
[1] = molecular target: HIV-1 92BR020 envelope glycoprotein (Env) on pseudovirus (HIV-1)
[2] = molecular target: HIV-1 92RW020 envelope glycoprotein (Env) on pseudovirus (HIV-1)
[3] = molecular target: HIV-1 Env of isolate 6535.3 (HIV-1)
[4] = molecular target: HIV-1 Env of isolate 92BR020 (HIV-1)
[5] = molecular target: HIV-1 Env of isolate 92RW008 (clade A), on pseudovirus (HIV-1)
[6] = molecular target: HIV-1 Env of isolate 92RW009 (clade A), on pseudovirus (HIV-1)
[7] = molecular target: HIV-1 Env of isolate 92TH021 (pseudovirus) (HIV-1)
[8] = molecular target: HIV-1 Env of isolate 92UG001 (subtype D), on pseudovirus (HIV-1)
[9] = molecular target: HIV-1 Env of isolate 92UG005 (subtype D), on pseudovirus (HIV-1)
[10] = molecular target: HIV-1 Env of isolate 92UG024 (subtype D), on pseudovirus (HIV-1)
[11] = molecular target: HIV-1 Env of isolate 92UG031 (pseudovirus) (HIV-1)
[12] = molecular target: HIV-1 Env of isolate 92UG037 (pseudovirus) (HIV-1)
[13] = molecular target: HIV-1 Env of isolate 92UG046 (subtype D), on pseudovirus (HIV-1)
[14] = molecular target: HIV-1 Env of isolate 92UG114 (subtype D), on pseudovirus (HIV-1)
[15] = molecular target: HIV-1 Env of isolate 92WR020 (pseudovirus) (HIV-1)
[16] = molecular target: HIV-1 Env of isolate 92WR021 (pseudovirus) (HIV-1)
[17] = molecular target: HIV-1 Env of isolate 92WR024 (pseudovirus) (HIV-1)
[18] = molecular target: HIV-1 Env of isolate 92WR026 (pseudovirus) (HIV-1)
[19] = molecular target: HIV-1 Env of isolate 93TH305 (HIV-1)
[20] = molecular target: HIV-1 Env of isolate 93UG077 (pseudovirus) (HIV-1)
[21] = molecular target: HIV-1 Env of isolate 93WR029 (pseudovirus) (HIV-1)
[22] = molecular target: HIV-1 Env of isolate 94 KE 105 (pseudovirus) (HIV-1)
[23] = molecular target: HIV-1 Env of isolate 94UG103 (pseudovirus) (HIV-1)
[24] = molecular target: HIV-1 Env of isolate 98CN006 (subtype CRF08 BC), on pseudovirus (HIV-1)
[25] = molecular target: HIV-1 Env of isolate 98CN009 (subtype CRF07_BC), on pseudovirus (HIV-1)
[26] = molecular target: HIV-1 Env of isolate APV_13 (HIV-1)
[27] = molecular target: HIV-1 Env of isolate APV_17 (HIV-1)
[28] = molecular target: HIV-1 Env of isolate APV_6 (HIV-1)
[29] = molecular target: HIV-1 Env of isolate CAAN.A2 (HIV-1)
[30] = molecular target: HIV-1 Env of isolate CMU02 (pseudovirus) (HIV-1)
[31] = molecular target: HIV-1 Env of isolate JRFL (HIV-1)
[32] = molecular target: HIV-1 Env of isolate MG RM-A-005 (pseudovirus) (HIV-1)
[33] = molecular target: HIV-1 Env of isolate MG RM-A-006 (pseudovirus) (HIV-1)
[34] = molecular target: HIV-1 Env of isolate MG RM-A-007 (pseudovirus) (HIV-1)
[35] = molecular target: HIV-1 Env of isolate MG RM-A-008 (pseudovirus) (HIV-1)
[36] = molecular target: HIV-1 Env of isolate MG RM-A-009 (pseudovirus) (HIV-1)
[37] = molecular target: HIV-1 Env of isolate MG RM-A-010 (pseudovirus) (HIV-1)
[38] = molecular target: HIV-1 Env of isolate MG RM-A-011 (pseudovirus) (HIV-1)
[39] = molecular target: HIV-1 Env of isolate MG RM-A-012 (pseudovirus) (HIV-1)
[40] = molecular target: HIV-1 Env of isolate MG RM-A-013 (pseudovirus) (HIV-1)
[41] = molecular target: HIV-1 Env of isolate MG RM-A-014 (pseudovirus) (HIV-1)
[42] = molecular target: HIV-1 Env of isolate MGRM-AE-001 (pseudovirus) (HIV-1)
[43] = molecular target: HIV-1 Env of isolate MGRM-AE-002 (pseudovirus) (HIV-1)
[44] = molecular target: HIV-1 Env of isolate MGRM-AE-003 (pseudovirus) (HIV-1)
[45] = molecular target: HIV-1 Env of isolate MGRM-AE-004 (pseudovirus) (HIV-1)
[46] = molecular target: HIV-1 Env of isolate MGRM-AE-005 (pseudovirus) (HIV-1)
[47] = molecular target: HIV-1 Env of isolate MGRM-AE-006 (pseudovirus) (HIV-1)
[48] = molecular target: HIV-1 Env of isolate MGRM-Chronic-B-001 (HIV-1)
[49] = molecular target: HIV-1 Env of isolate MGRM-Chronic-B-002 (HIV-1)
[50] = molecular target: HIV-1 Env of isolate MGRM-Chronic-B-003 (HIV-1)
[51] = molecular target: HIV-1 Env of isolate MGRM-Chronic-B-004 (HIV-1)
[52] = molecular target: HIV-1 Env of isolate MGRM-Chronic-B-008 (HIV-1)
[53] = molecular target: HIV-1 Env of isolate MGRM-D-001 (subtype D), on pseudovirus (HIV-1)
[54] = molecular target: HIV-1 Env of isolate MGRM-D-002 (subtype D), on pseudovirus (HIV-1)
[55] = molecular target: HIV-1 Env of isolate MGRM-D-003 (subtype D), on pseudovirus (HIV-1)
[56] = molecular target: HIV-1 Env of isolate MGRM-D-004 (subtype D), on pseudovirus (HIV-1)
[57] = molecular target: HIV-1 Env of isolate MGRM-D-005 (subtype D), on pseudovirus (HIV-1)
[58] = molecular target: HIV-1 Env of isolate MGRM-D-008 (subtype D), on pseudovirus (HIV-1)
[59] = molecular target: HIV-1 Env of isolate VLGCA1 (pseudovirus) (HIV-1)

Chain of 4980_N08 (PGT-143) (antibody) (VH): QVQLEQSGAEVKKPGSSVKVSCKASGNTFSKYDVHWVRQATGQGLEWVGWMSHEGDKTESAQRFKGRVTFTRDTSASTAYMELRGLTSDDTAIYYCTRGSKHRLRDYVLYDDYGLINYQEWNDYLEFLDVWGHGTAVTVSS
Chain of 4980_N08 (PGT-143) (antibody) (VL): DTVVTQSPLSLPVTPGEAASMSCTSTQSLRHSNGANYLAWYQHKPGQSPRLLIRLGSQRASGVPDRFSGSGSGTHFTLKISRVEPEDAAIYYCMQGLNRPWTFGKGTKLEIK

Substance: 4980_N08 (PGT-143) (antibody)
- IC50 (ug/ml), neutralizing activity [1]: > 10 µg/mL
- IC50 (ug/ml), neutralizing activity [2]: > 10 µg/mL
- IC50 [3]: > 50 µg/mL
- IC50 [4]: 25.9 µg/mL
- IC50, single-round pseudovirus neutralization [5]: 0.385 µg/mL
- IC50, single-round pseudovirus neutralization [6]: 0.01 µg/mL
- IC50 (µg/mL), pseudovirus neutralization [7]: 0.003 µg/mL
- IC50, pseudovirus neutralization [8]: > 50 µg/mL
- IC50, pseudovirus neutralization [9]: > 50 µg/mL
- IC50, pseudovirus neutralization [10]: > 50 µg/mL
- IC50 (µg/mL), pseudovirus neutralization [11]: 0.095 µg/mL
- IC50 (µg/mL), pseudovirus neutralization [12]: 0.854 µg/mL
- IC50, pseudovirus neutralization [13]: > 50 µg/mL
- IC50, pseudovirus neutralization [14]: > 50 µg/mL
- IC50 (µg/mL), pseudovirus neutralization [15]: > 50 µg/mL
- IC50 (µg/mL), pseudovirus neutralization [16]: > 50 µg/mL
- IC50 (µg/mL), pseudovirus neutralization [17]: 0.122 µg/mL
- IC50 (µg/mL), pseudovirus neutralization [18]: 5.36 µg/mL
- IC50 [19]: 17.3 µg/mL
- IC50 (µg/mL), pseudovirus neutralization [20]: > 50 µg/mL
- IC50 (µg/mL), pseudovirus neutralization [21]: 0.053 µg/mL
- IC50 (µg/mL), pseudovirus neutralization [22]: 0.368 µg/mL
- IC50 (µg/mL), pseudovirus neutralization [23]: > 50 µg/mL
- IC50, pseudovirus neutralization [24]: > 50 µg/mL
- IC50, pseudovirus neutralization [25]: 10.2 µg/mL
- IC50 [26]: > 50 µg/mL
- IC50 [27]: 1.11 µg/mL
- IC50 [28]: 14 µg/mL
- IC50 [29]: > 50 µg/mL
- IC50 (µg/mL), pseudovirus neutralization [30]: > 50 µg/mL
- IC50 [31]: > 50 µg/mL
- IC50 (µg/mL), pseudovirus neutralization [32]: 7.48 µg/mL
- IC50 (µg/mL), pseudovirus neutralization [33]: > 50 µg/mL
- IC50 (µg/mL), pseudovirus neutralization [34]: > 50 µg/mL
- IC50 (µg/mL), pseudovirus neutralization [35]: > 50 µg/mL
- IC50 (µg/mL), pseudovirus neutralization [36]: 0.05 µg/mL
- IC50 (µg/mL), pseudovirus neutralization [37]: 0.019 µg/mL
- IC50 (µg/mL), pseudovirus neutralization [38]: > 50 µg/mL
- IC50 (µg/mL), pseudovirus neutralization [39]: > 50 µg/mL
- IC50 (µg/mL), pseudovirus neutralization [40]: 9.24 µg/mL
- IC50 (µg/mL), pseudovirus neutralization [41]: 1.07 µg/mL
- IC50 (µg/mL), pseudovirus neutralization [42]: > 50 µg/mL
- IC50 (µg/mL), pseudovirus neutralization [43]: > 50 µg/mL
- IC50 (µg/mL), pseudovirus neutralization [44]: > 50 µg/mL
- IC50 (µg/mL), pseudovirus neutralization [45]: 0.002 µg/mL
- IC50 (µg/mL), pseudovirus neutralization [46]: > 50 µg/mL
- IC50 (µg/mL), pseudovirus neutralization [47]: > 50 µg/mL
- IC50 [48]: > 50 µg/mL
- IC50 [49]: > 50 µg/mL
- IC50 [50]: 0.854 µg/mL
- IC50 [51]: 0.395 µg/mL
- IC50 [52]: > 50 µg/mL
- IC50, pseudovirus neutralization [53]: > 50 µg/mL
- IC50, pseudovirus neutralization [54]: > 50 µg/mL
- IC50, pseudovirus neutralization [55]: > 50 µg/mL
- IC50, pseudovirus neutralization [56]: > 50 µg/mL
- IC50, pseudovirus neutralization [57]: 1.41 µg/mL
- IC50, pseudovirus neutralization [58]: 0.153 µg/mL
- IC50 (µg/mL), pseudovirus neutralization [59]: 17.4 µg/mL
